Assay results from IntAct's records for PubMed 10984058.

B1: Myosin-2 (Saccharomyces cerevisiae), P19524 (parent)
chain: MSFEVGTRCWYPHKELGWIGAEVIKNEFNDGKYHLELQLEDDEIVSVDTKDLNNDKDQSLPLLRNPPILEATEDLTSLSYLNEPAVLHAIKQRYSQLNIYTYSGIVLIATNPFDRVDQLYTQDMIQAYAGKRRGELEPHLFAIAEEAYRLMKNDKQNQTIVVSGESGAGKTVSAKYIMRYFASVEEENSATVQHQVEMSETEQKILATNPIMEAFGNAKTTRNDNSSRFGKYLEILFDKDTSIIGARIRTYLLERSRLVYQPPIERNYHIFYQLMAGLPAQTKEELHLTDASDYFYMNQGGDTKINGIDDAKEYKITVDALTLVGITKETQHQIFKILAALLHIGNIEIKKTRNDASLSADEPNLKLACELLGIDAYNFAKWVTKKQIITRSEKIVSNLNYSQALVAKDSVAKFIYSALFDWLVENINTVLCNPAVNDQISSFIGVLDIYGFEHFEKNSFEQFCINYANEKLQQEFNQHVFKLEQEEYVKEEIEWSFIEFNDNQPCIDLIENKLGILSLLDEESRLPAGSDESWTQKLYQTLDKSPTNKVFSKPRFGQTKFIVSHYALDVAYDVEGFIEKNRDTVSDGHLEVLKASTNETLINILEGLEKAAKKLEEAKKLELEQAGSKKPGPIRTVNRKPTLGSMFKQSLIELMNTINSTNVHYIRCIKPNADKEAWQFDNLMVLSQLRACGVLETIRISCAGFPSRWTFEEFVLRYYILIPHEQWDLIFKKKETTEEDIISVVKMILDATVKDKSKYQIGNTKIFFKAGMLAYLEKLRSNKMHNSIVMIQKKIRAKYYRKQYLQISQAIKYLQNNIKGFIIRQRVNDEMKVNCATLLQAAYRGHSIRANVFSVLRTITNLQKKIRKELKQRQLKQEHEYNAAVTIQSKVRTFEPRSRFLRTKKDTVVVQSLIRRRAAQRKLKQLKADAKSVNHLKEVSYKLENKVIELTQNLASKVKENKEMTERIKELQVQVEESAKLQETLENMKKEHLIDIDNQKSKDMELQKTIENNLQSTEQTLKDAQLELEDMVKQHDELKEESKKQLEELEQTKKTLVEYQTLNGDLQNEVKSLKEEIARLQTAMSLGTVTTSVLPQTPLKDVMGGGASNFNNMMLENSDLSPNDLNLKSRSTPSSGNNHIDSLSVDRENGVNATQINEELYRLLEDTEILNQEITEGLLKGFEVPDAGVAIQLSKRDVVYPARILIIVLSEMWRFGLTKQSESFLAQVLTTIQKVVTQLKGNDLIPSGVFWLANVRELYSFVVFALNSILTEETFKNGMTDEEYKEYVSLVTELKDDFEALSYNIYNIWLKKLQKQLQKKAINAVVISESLPGFSAGETSGFLNKIFANTEEYTMDDILTFFNSIYWCMKSFHIENEVFHAVVTTLLNYVDAICFNELIMKRNFLSWKRGLQLNYNVTRLEEWCKTHGLTDGTECLQHLIQTAKLLQVRKYTIEDIDILRGICYSLTPAQLQKLISQYQVADYESPIPQEILRYVADIVKKEAALSSSGNDSKGHEHSSSIFITPETGPFTDPFSLIKTRKFDQVEAYIPAWLSLPSTKRIVDLVAQQVVQDGH
partner: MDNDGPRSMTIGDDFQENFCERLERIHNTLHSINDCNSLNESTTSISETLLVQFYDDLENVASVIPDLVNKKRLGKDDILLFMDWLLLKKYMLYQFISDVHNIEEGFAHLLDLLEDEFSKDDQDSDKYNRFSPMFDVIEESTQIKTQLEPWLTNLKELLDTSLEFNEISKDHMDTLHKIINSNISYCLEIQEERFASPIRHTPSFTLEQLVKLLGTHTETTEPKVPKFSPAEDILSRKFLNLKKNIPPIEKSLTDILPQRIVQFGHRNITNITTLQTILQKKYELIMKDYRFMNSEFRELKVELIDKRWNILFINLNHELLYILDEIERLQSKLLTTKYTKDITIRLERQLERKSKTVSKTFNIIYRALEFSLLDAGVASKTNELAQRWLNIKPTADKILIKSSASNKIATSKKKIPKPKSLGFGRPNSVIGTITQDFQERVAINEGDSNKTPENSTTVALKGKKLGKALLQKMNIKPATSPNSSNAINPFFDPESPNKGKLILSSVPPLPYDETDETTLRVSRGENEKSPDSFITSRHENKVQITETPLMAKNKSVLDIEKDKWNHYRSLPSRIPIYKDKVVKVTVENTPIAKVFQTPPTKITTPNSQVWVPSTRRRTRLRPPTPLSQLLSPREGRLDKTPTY

Variants of: B1
Conditions: with kar9_yeast KAR9, P32526

Variant | effect of a mutation on the interaction
Y1161F;N1171Y;L1413S;I1453V;I1498M | disrupting interaction strength
E1168K;N1254D | disrupting interaction strength
